This test concerns the target T1, mouse eNOS (endogenous, thoracodorsal arteries) (mouse, UniProt P70313 2-1202).
T1 sequence (looked up): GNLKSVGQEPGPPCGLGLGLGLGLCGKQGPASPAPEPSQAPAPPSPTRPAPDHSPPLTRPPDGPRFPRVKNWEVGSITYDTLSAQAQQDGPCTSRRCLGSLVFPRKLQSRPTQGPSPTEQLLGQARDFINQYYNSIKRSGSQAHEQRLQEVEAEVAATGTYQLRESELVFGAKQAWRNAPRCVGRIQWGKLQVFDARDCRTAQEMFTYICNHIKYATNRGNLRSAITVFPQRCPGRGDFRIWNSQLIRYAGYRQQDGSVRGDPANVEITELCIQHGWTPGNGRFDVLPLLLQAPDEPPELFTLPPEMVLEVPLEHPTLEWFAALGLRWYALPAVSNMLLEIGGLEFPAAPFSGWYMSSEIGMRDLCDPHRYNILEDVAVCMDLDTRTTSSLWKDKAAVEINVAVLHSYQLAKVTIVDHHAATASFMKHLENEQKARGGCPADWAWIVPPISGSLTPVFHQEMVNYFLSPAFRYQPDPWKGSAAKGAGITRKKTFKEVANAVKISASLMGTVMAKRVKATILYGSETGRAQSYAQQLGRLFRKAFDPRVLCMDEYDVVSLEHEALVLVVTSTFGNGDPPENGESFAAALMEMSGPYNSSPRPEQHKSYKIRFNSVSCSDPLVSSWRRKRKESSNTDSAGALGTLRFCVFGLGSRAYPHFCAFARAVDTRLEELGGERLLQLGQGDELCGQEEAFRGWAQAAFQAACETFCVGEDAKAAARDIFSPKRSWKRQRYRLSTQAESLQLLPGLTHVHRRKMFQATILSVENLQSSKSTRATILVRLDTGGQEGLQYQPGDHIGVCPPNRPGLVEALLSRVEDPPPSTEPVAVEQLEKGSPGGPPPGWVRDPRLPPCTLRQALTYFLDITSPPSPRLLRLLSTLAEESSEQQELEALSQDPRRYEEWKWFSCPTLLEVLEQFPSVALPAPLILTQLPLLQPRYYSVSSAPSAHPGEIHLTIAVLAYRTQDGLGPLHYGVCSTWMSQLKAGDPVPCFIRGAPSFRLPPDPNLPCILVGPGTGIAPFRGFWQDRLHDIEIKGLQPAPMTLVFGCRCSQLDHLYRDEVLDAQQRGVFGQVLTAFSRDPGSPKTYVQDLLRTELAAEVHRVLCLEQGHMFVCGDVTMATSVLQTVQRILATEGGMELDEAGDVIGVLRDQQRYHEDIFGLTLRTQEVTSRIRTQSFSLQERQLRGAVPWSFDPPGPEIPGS
Nature of the test: cell-based or functional assay.

We go through one molecule from US20180022779A1 (UNIVERSITY OF VIRGINIA PATENT FOUNDATION, published 2018).

Turning to YGRKKRRQRRRLSFPTTKTYF [Hb α X peptide (HIV-tat tag linked to LSFPTTKTYF)], the “EC50 of phenylephrine ([PE] producing half of the maximum effect), thoracodorsal arteries treated with Hb α X” value was determined as 6.8 µM.
